The PETadex activity labels (doi:10.1021/acs.est.4c01495)

Legend:
[1] = substrate: p-NP-C4; settings: 35 °C
[2] = substrate: gfPET; assay: Proxy for plastic degradation [Released monomer concentration (HPLC/LC-MS) (TPA+MHET)]; settings: pH 8

B1: unnamed (protein)
chain: MDGVLWRVRTAALMAALLALAAWALVWASPSVEAQSNPYQRGPNPTRSALTADGPFSVATYTVSRLSVSGFGGGVIYYPTGTSLTFGGIAMSPGYTADASSLAWLGRRLASHGFVVLVINTNSRFDYPDSRASQLSAALNYLRTSSPSAVRARLDANRLAVAGHSMGGGGTLRIAEQNPSLKAAVPLTPWHTDKTFNTSVPVLIVGAEADTVAPVSQHAIPFYQNLPSTTPKVYVELDNASHFAPNSNNAAISVYTISWMKLWVDNDTRYRQFLCNVNDPALSDFRTNNRHCQ
Km [1]: 300 µM | kcat [1]: 21.6 s⁻¹ | kcat/Km [1]: 71900 M⁻¹ s⁻¹ | Proxy for plastic degradation ([2]; 35 °C, 1 h): 5 µM | Proxy for plastic degradation ([2]; 35 °C, 3 h): 14 µM | Proxy for plastic degradation ([2]; 35 °C, 5 h): 39 µM | Proxy for plastic degradation ([2]; 35 °C, 7 h): 95 µM | Proxy for plastic degradation ([2]; 35 °C, 10 h): 182 µM | Proxy for plastic degradation ([2]; 50 °C, 1 h): 480 µM | Proxy for plastic degradation ([2]; 50 °C, 3 h): 1470 µM | Proxy for plastic degradation ([2]; 50 °C, 5 h): 2380 µM | Proxy for plastic degradation ([2]; 50 °C, 7 h): 3250 µM | Proxy for plastic degradation ([2]; 50 °C, 10 h): 4130 µM

B2: unnamed (protein)
chain: MNFPRASRLMQAAVLGGLMAVSAAATAQTNPYARGPNPTAASLEASAGPFTVRSFTVSRPSGYGAGTVYYPTNAGGTVGAIAIVPGYTARQSSIKWWGPRLASHGFVVITIDTNSTLDQPSSRSSQQMAALRQVASLNGTSSSPIYGKVDTARMGVMGWSMGGGGSLISAANNPSLKAAAPQAPWDSSTNFSSVTVPTLIFACENDSIAPVNSSALPIYDSMSRNAKQFLEINGGSHSCANSGNSNQALIGKKGVAWMKRFMDNDTRYSTFACENPNSTRVSDFRTANCS
Km ([1]; part of the chain shown): 240 µM | kcat ([1]; part of the chain shown): 15.1 s⁻¹ | kcat/Km ([1]; part of the chain shown): 62900 M⁻¹ s⁻¹ | Proxy for plastic degradation ([2]; 35 °C, 1 h, part of the chain shown): 17 µM | Proxy for plastic degradation ([2]; 35 °C, 3 h, part of the chain shown): 38 µM | Proxy for plastic degradation ([2]; 35 °C, 5 h, part of the chain shown): 45 µM | Proxy for plastic degradation ([2]; 35 °C, 7 h, part of the chain shown): 55 µM | Proxy for plastic degradation ([2]; 35 °C, 10 h, part of the chain shown): 77 µM | Proxy for plastic degradation ([2]; 50 °C, 1 h, part of the chain shown): 10 µM | Proxy for plastic degradation ([2]; 50 °C, 3 h, part of the chain shown): 25 µM | Proxy for plastic degradation ([2]; 50 °C, 5 h, part of the chain shown): 50 µM | Proxy for plastic degradation ([2]; 50 °C, 7 h, part of the chain shown): 70 µM | Proxy for plastic degradation ([2]; 50 °C, 10 h, part of the chain shown): 209 µM
